The test has as its target human CD137 expressed on Jurkat cells (human, UniProt Q07011 24-255). Kind of test: cell-based or functional assay.

B1: PRO1480 (other)
chain: DIQMTQSPASLSASVGDRVTITCQASQSIGTYLAWYQQKPGKPPKLLIYRAFILASGVPSRFSGSGSGTDFTLTISSLQPEDFATYYCQSNFYSDSTTIGPNAFGTGTKVTVLGGGGGSEVQLVESGGGLVQPGGSLRLSCAASGFSFSANYYPCWVRQAPGKGLEWIGCIYGGSSDITYDANWTKGRFTISRDNSKNTVYLQMNSLRAEDTAVYYCARSAWYSGWGGDLWGQGTLVTVSSGGGGSGGGGSGGGGSGGGGSIQMTQSPSSLSASVGDRVTITCQASQSISNRLAWYQQKPGKAPKLLIYSASTLASGVPSRFSGSGSGTDFTLTISSLQPEDFATYYCQSTYYGNDGNAFGTGTKVTVLGGGGGSEVQLVESGGGLVQPGGSLRLSCAASGFSFNSDYWIYWVRQAPGKGLEWIASIYGGSSGNTQYASWAQGRFTISRDNSKNTVYLQMNSLRAEDTAVYFCARGYVDYGGATDLWGQGTLVTVSSGGGGSGGGGSIQMTQSPSSLSASVGDRVTITCQSSESVYSNNQLSWYQQKPGQPPKLLIYDASDLASGVPSRFSGSGSGTDFTLTISSLQPEDFATYYCAGGFSSSSDTAFGGGTKLTVLGGGGGSGGGGSGGGGSGGGGSEVQLVESGGGLVQPGGSLRLSCAASGFSLSSNAMGWVRQAPGKGLEYIGIISVGGFTYYASWAKGRFTISRDNSKNTVYLQMNSLRAEDTATYFCARDRHGGDSSGAFYLWGQGTLVTVSS
B1: the “IC50 (ng/ml), activation of NF-kB reporter gene, HCC827 +IFNg, 6 h, with HSA” value is 6.44 ng/mL and the “IC50 (ng/ml), activation of NF-kB reporter gene, HCC827 +IFNg, 24 h, with HSA” value is 4.67 ng/mL.

B2: PRO1481 (other)
chain: DIQMTQSPASLSASVGDRVTITCQASQSIGTYLAWYQQKPGKPPKLLIYRAFILASGVPSRFSGSGSGTDFTLTISSLQPEDFATYYCQSNFYSDSTTIGPNAFGTGTKVTVLGGGGGSESQLVESGGGLVQPGGSLRLSCAASGFSFSANYYPCWVRQAPGKGLEWIGCIYGGSSDITYDANWTKGRFTISRDNSKNTVYLQMNSLRAEDTAVYFCARSAWYSGWGGDLWGPGTLVTVSSGGGGSGGGGSGGGGSGGGGSFQLTQSPSSLSASVGDRVTITCQASQSISNRLAWYQQKPGKPPKLLIYSASTLASGVPSRFSGSGSGTDFTLTISSLQPEDFATYYCQSTYYGNDGNAFGTGTKVTVLGGGGGSEVQLVESGGGLVQPGGSLRLSCAASGFSFNSDYWIYWVRQAPGKGLEWIASIYGGSSGNTQYASWAQGRFTISRDNSKNTVYLQMNSLRAEDTAVYFCARGYVDYGGATDLWGQGTLVTVSSGGGGSGGGGSIQMTQSPSSLSASVGDRVTITCQSSESVYSNNQLSWYQQKPGQPPKLLIYDASDLASGVPSRFSGSGSGTDFTLTISSLQPEDFATYYCAGGFSSSSDTAFGGGTKLTVLGGGGGSGGGGSGGGGSGGGGSEVQLVESGGGLVQPGGSLRLSCAASGFSLSSNAMGWVRQAPGKGLEYIGIISVGGFTYYASWAKGRFTISRDNSKNTVYLQMNSLRAEDTATYFCARDRHGGDSSGAFYLWGQGTLVTVSS
For the molecule B2, the “IC50 (ng/ml), activation of NF-kB reporter gene, HCC827 +IFNg, 6 h, with HSA” value was found to be 7.22 ng/mL and the “IC50 (ng/ml), activation of NF-kB reporter gene, HCC827 +IFNg, 24 h, with HSA” value stood at 5.51 ng/mL.

(Values after EP3636320A1 (Numab Therapeutics AG, dated 2020).)
